For one substance, stoichiometry N results are on record in article PMC4269169.

This assay addresses GST-FLAG-Pol12 of Candida glabrata (Candida glabrata). Briefly: pull-down.

Turning to “His6-SUMO-Stn1 of Candida glabrata (natural protein)”, the stoichiometry N was 1.

One may read the stoichiometry N as a count of units in the complex or per binding partner.
